According to US20090155256A1 (Pfizer, published 2009):
Each block holds one binder with its values, some of them ahead of it.

What was measured:
[1] = molecular target: T1, His-tagged domains of human FcγRI (R&D Systems, Cat # 1257-Fc) (human, UniProt P12314 16-288); assay: SPR (Biacore 3000), His-tagged receptor captured by penta-His antibody on CM5 chip, antibody injected; RU relative to control
T1 construct: Bought construct; not shown: His tag

[2] = molecular target: T2, His-tagged domains of human FcγRIII (R&D Systems, Cat # 1597-Fc) (human, UniProt O75015 17-200, limits assumed); assay: as above
T2 construct: not shown: His tag
T2 sequence (O75015 17-200 limits assumed): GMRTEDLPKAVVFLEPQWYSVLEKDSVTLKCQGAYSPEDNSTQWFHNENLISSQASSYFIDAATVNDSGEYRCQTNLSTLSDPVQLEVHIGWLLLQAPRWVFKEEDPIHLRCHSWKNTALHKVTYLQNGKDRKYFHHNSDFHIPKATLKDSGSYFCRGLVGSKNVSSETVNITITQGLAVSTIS

[3] = molecular target: Purified human C1q (191391, MP Biomedicals) (human, UniProt P02745 23-245; P02746 28-253; P02747 29-245); assay: ELISA: Aβ-coated plate, antibody, purified human C1q, FITC anti-C1q
Chain of Purified human C1q (191391, MP Biomedicals) (P02745 23-245 limits assumed, chain 1 of 3): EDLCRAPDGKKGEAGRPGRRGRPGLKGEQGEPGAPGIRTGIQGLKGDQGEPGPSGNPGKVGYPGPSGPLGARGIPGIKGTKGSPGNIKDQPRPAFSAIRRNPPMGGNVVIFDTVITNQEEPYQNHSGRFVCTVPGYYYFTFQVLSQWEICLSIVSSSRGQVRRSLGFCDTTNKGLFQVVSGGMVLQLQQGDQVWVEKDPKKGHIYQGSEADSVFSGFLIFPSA
Chain of Purified human C1q (191391, MP Biomedicals) (P02746 28-253 limits assumed, chain 2 of 3): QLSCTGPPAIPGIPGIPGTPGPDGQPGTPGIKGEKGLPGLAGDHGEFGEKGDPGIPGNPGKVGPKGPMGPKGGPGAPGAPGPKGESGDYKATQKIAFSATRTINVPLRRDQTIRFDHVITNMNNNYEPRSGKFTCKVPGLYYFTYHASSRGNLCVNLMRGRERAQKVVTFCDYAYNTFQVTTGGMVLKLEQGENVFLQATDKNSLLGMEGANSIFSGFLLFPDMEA
Chain of Purified human C1q (191391, MP Biomedicals) (P02747 29-245 limits assumed, chain 3 of 3): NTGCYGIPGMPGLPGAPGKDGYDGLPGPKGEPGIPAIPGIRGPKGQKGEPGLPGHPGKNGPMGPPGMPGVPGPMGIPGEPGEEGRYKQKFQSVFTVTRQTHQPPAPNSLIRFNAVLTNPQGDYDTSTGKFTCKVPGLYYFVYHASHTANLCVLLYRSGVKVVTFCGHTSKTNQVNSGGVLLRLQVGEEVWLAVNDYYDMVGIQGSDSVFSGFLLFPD

[4] = molecular target: T1, His-tagged domains of human FcγRI (R&D …); assay: SPR (Biacore 3000), His-tagged receptor captured by penta-His antibody
[5] = molecular target: T2, His-tagged domains of human FcγRIII …; assay: as above

T1 sequence (P12314 16-288 limits assumed): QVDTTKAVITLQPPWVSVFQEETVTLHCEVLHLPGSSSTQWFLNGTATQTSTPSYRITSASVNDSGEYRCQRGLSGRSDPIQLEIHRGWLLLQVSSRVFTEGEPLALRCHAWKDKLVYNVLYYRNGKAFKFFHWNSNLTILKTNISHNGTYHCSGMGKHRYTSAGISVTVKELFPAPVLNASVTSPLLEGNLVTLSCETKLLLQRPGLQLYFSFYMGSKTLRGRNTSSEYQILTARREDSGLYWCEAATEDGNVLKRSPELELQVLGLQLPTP

- Relative Binding Capability (%) [1]: 0%
- Relative Binding Capability (%) [2]: 0%
- binding result [3]: no binding
- binding result [4]: no binding
- binding result [5]: no binding
B1: Humanized 3D6 2m (FcγR), human IgG1 L234A/G237A (EU numbering) (antibody)
heavy: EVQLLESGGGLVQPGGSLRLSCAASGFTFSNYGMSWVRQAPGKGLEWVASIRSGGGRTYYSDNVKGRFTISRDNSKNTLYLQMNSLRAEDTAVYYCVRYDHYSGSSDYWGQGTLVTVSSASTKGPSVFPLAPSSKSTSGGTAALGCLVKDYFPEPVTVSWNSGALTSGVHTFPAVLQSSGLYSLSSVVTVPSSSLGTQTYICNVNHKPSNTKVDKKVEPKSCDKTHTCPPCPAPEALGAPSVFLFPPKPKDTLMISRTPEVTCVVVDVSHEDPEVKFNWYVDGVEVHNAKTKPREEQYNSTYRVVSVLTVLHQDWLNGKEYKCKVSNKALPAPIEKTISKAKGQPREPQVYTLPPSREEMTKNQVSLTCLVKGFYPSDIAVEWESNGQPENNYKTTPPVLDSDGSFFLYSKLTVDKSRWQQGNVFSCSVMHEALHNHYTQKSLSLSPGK
light: DVVMTQSPLSLPVTPGEPASISCKSSQSLLDSDGKTYLNWLLQKPGQSPQRLIYLVSKLDSGVPDRFSGSGSGTDFTLKISRVEAEDVGVYYCWQGTHFPRTFGQGTKVEIKRTVAAPSVFIFPPSDEQLKSGTASVVCLLNNFYPREAKVQWKVDNALQSGNSQESVTEQDSKDSTYSLSSTLTLSKADYEKHKVYACEVTHQGLSSPVTKSFNRGEC
notes: also called Hu 3D6 2 m; Hu 3D6 2 m IgG1

- Relative Binding Capability (%) [2]: 0%
- binding result [3]: no binding
- binding result [4]: binds
- binding result [5]: no binding
B2: Humanized 3D6 1m (hinge region), human IgG4 S241P (Kabat numbering) (antibody)
heavy: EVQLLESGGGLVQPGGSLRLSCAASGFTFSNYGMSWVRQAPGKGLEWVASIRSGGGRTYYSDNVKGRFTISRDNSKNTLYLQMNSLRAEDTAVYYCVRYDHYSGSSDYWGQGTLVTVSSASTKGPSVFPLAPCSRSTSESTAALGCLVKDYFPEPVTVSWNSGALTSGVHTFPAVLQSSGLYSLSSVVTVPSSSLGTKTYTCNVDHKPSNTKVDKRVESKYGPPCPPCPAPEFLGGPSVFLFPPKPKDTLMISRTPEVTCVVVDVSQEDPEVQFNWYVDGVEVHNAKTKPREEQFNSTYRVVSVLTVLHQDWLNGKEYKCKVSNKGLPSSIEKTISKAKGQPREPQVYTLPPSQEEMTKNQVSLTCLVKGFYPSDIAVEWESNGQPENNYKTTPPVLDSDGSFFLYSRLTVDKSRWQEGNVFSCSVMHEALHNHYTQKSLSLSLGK
light: B1 light
notes: also called Hu 3D6 1m IgG4; IgG4 isotype

- Relative Binding Capability (%) [1]: 0%
- Relative Binding Capability (%) [2]: 0%
- binding result [3]: no binding
- binding result [4]: no binding
- binding result [5]: no binding
B3: Humanized 3D6 3m (FcγR) AAB-003, human IgG1 L234A/L235A/G237A (EU numbering) (antibody)
heavy: EVQLLESGGGLVQPGGSLRLSCAASGFTFSNYGMSWVRQAPGKGLEWVASIRSGGGRTYYSDNVKGRFTISRDNSKNTLYLQMNSLRAEDTAVYYCVRYDHYSGSSDYWGQGTLVTVSSASTKGPSVFPLAPSSKSTSGGTAALGCLVKDYFPEPVTVSWNSGALTSGVHTFPAVLQSSGLYSLSSVVTVPSSSLGTQTYICNVNHKPSNTKVDKKVEPKSCDKTHTCPPCPAPEAAGAPSVFLFPPKPKDTLMISRTPEVTCVVVDVSHEDPEVKFNWYVDGVEVHNAKTKPREEQYNSTYRVVSVLTVLHQDWLNGKEYKCKVSNKALPAPIEKTISKAKGQPREPQVYTLPPSREEMTKNQVSLTCLVKGFYPSDIAVEWESNGQPENNYKTTPPVLDSDGSFFLYSKLTVDKSRWQQGNVFSCSVMHEALHNHYTQKSLSLSPGK
light: B1 light
notes: also called Hu 3D6 3 m; Hu 3D6 3 m IgG1

- Relative Binding Capability (%) [1]: 100%
- Relative Binding Capability (%) [2]: 100%
B4: Bapineuzumab (humanized 3D6, human IgG1, no Fc mutations) (antibody)
heavy: not shown
light: B1 light
notes: also called AAB-001; Bapineuzumab Control
